We go through four molecules from patent US20090011997A1 (THERATECHNOLOGIES, published 2009).

Bridge positions count the residues as written; N and C are the ends. Square brackets hold non-standard residues; d marks the D form. Ends that are not written are not given here. Nle = CCCC[C@H](N)C(=O)O

In the assay the target is ANP receptor (on ANP receptor-expressing LLC-PK1 cells). The assay can be described thus: cell-based or functional assay.

B1: bifunctional hormone of SEQ ID NO: 43 (peptide)
peptide: Ac-HRWGKPMCFGGRMDRIGAQSGLGCNSFRY-NH2
modifications: disulfide 8-24
SMILES: CC[C@H](C)[C@@H]1NC(=O)[C@H](CCCNC(=N)N)NC(=O)[C@H](CC(=O)O)NC(=O)[C@H](CCSC)NC(=O)[C@H](CCCNC(=N)N)NC(=O)CNC(=O)CNC(=O)[C@H](Cc2ccccc2)NC(=O)[C@@H](NC(=O)[C@H](CCSC)NC(=O)[C@@H]2CCCN2C(=O)[C@H](CCCCN)NC(=O)CNC(=O)[C@H](Cc2c[nH]c3ccccc23)NC(=O)[C@H](CCCNC(=N)N)NC(=O)[C@H](Cc2c[nH]cn2)NC(C)=O)CSSC[C@@H](C(=O)N[C@@H](CC(N)=O)C(=O)N[C@@H](CO)C(=O)N[C@@H](Cc2ccccc2)C(=O)N[C@@H](CCCNC(=N)N)C(=O)N[C@@H](Cc2ccc(O)cc2)C(N)=O)NC(=O)CNC(=O)[C@H](CC(C)C)NC(=O)CNC(=O)[C@H](CO)NC(=O)[C@H](CCC(N)=O)NC(=O)[C@H](C)NC(=O)CNC1=O
As for B1, the “EC50 on the production of cGMP (LLC-PK1 cells)” value (shortened to “EC50 on the production of cGMP”) was found to be 86.8 nM.

B2: bifunctional hormone of SEQ ID NO: 41 (peptide)
peptide: Ac-EHFRWGRRSSCFGGRMDRIGAQSGLGCNSFRY-NH2
modifications: disulfide 11-27
SMILES: CC[C@H](C)[C@@H]1NC(=O)[C@H](CCCNC(=N)N)NC(=O)[C@H](CC(=O)O)NC(=O)[C@H](CCSC)NC(=O)[C@H](CCCNC(=N)N)NC(=O)CNC(=O)CNC(=O)[C@H](Cc2ccccc2)NC(=O)[C@@H](NC(=O)[C@H](CO)NC(=O)[C@H](CO)NC(=O)[C@H](CCCNC(=N)N)NC(=O)[C@H](CCCNC(=N)N)NC(=O)CNC(=O)[C@H](Cc2c[nH]c3ccccc23)NC(=O)[C@H](CCCNC(=N)N)NC(=O)[C@H](Cc2ccccc2)NC(=O)[C@H](Cc2c[nH]cn2)NC(=O)[C@H](CCC(=O)O)NC(C)=O)CSSC[C@@H](C(=O)N[C@@H](CC(N)=O)C(=O)N[C@@H](CO)C(=O)N[C@@H](Cc2ccccc2)C(=O)N[C@@H](CCCNC(=N)N)C(=O)N[C@@H](Cc2ccc(O)cc2)C(N)=O)NC(=O)CNC(=O)[C@H](CC(C)C)NC(=O)CNC(=O)[C@H](CO)NC(=O)[C@H](CCC(N)=O)NC(=O)[C@H](C)NC(=O)CNC1=O
Regarding B2, the “EC50 on the production of cGMP” value was 8.9 nM.

B3: native ANP (SEQ ID NO: 2) (peptide)
peptide: SLRRSSCFGGRMDRIGAQSGLGCNSFRY
modifications: disulfide 7-23; also: C-terminal amide in Table IV, not in Table I
For the molecule B3, the “EC50 on the production of cGMP” value is 3.3 nM.

B4: bifunctional hormone of SEQ ID NO: 29 (peptide)
peptide: [Nle]EHFGGR[Nle]DRISKYRH[dF]RW-NH2
modifications: lactam 2-13; N-terminus assumed
SMILES: CCCC[C@@H]1NC(=O)[C@H](CCCNC(=N)N)NC(=O)CNC(=O)CNC(=O)[C@H](Cc2ccccc2)NC(=O)[C@H](Cc2c[nH]cn2)NC(=O)[C@@H](NC(=O)[C@@H](N)CCCC)CCC(=O)NCCCC[C@@H](C(=O)N[C@@H](Cc2ccc(O)cc2)C(=O)N[C@@H](CCCNC(=N)N)C(=O)N[C@@H](Cc2c[nH]cn2)C(=O)N[C@H](Cc2ccccc2)C(=O)N[C@@H](CCCNC(=N)N)C(=O)N[C@@H](Cc2c[nH]c3ccccc23)C(N)=O)NC(=O)[C@H](CO)NC(=O)[C@H]([C@@H](C)CC)NC(=O)[C@H](CCCNC(=N)N)NC(=O)[C@H](CC(=O)O)NC1=O
With B4, the “EC50 on the production of cGMP” value was 1430 nM.
